Reference: doi:10.1101/2020.04.08.026906

Target: C3b (UniProt P01024)
Assay: SPR

UniProt P01024, sequence (P01024 whole entry, looked up): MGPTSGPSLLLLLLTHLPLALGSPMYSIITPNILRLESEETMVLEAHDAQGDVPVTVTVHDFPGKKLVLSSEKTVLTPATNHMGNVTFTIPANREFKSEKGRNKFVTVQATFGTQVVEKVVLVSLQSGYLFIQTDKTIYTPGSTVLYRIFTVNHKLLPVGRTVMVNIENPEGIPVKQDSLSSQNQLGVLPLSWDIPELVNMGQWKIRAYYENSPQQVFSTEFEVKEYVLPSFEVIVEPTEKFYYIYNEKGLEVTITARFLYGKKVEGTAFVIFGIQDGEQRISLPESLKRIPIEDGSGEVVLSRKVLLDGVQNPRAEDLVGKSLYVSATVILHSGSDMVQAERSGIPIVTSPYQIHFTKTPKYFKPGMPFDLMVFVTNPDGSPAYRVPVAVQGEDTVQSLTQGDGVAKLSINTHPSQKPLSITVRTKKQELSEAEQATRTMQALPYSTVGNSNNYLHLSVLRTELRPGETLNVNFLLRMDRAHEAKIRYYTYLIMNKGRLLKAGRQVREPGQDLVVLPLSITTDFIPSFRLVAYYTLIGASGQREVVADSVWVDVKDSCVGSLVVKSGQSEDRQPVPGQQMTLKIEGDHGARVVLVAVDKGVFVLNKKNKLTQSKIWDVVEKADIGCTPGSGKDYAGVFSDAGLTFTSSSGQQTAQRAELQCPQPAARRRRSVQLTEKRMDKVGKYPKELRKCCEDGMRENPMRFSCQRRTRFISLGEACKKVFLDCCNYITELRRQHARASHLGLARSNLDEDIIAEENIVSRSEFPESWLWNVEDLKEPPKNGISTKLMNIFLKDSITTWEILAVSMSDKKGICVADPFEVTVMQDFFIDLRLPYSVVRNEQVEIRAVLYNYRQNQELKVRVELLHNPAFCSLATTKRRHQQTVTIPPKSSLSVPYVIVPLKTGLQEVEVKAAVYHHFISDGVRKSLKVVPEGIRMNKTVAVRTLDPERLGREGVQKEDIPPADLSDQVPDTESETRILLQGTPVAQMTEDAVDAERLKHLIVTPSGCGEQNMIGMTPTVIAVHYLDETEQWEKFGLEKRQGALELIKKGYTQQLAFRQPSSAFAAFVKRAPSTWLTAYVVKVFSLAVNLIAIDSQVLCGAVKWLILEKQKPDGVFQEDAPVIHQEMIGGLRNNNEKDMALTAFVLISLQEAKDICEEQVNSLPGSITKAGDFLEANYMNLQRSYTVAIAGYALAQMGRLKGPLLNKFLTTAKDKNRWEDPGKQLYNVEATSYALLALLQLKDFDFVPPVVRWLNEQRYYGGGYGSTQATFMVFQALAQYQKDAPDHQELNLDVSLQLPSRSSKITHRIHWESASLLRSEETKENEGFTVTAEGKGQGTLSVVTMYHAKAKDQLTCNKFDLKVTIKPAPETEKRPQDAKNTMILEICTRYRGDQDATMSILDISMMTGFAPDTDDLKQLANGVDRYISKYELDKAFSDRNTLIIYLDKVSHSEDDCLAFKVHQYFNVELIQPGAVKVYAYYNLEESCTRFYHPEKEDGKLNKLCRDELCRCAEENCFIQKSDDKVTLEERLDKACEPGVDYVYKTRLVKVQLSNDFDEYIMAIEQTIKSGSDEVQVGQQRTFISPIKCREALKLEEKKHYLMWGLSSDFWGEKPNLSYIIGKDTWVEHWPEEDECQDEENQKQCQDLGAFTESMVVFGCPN

- KD with anti-FH.07.1 Fab' fragments: 1.9 µM
- Kd: 6 µM
Substance: plasma derived Factor H (from UniProt P08603 19-1231) (natural protein)
